# B1: tixagevimab (AZD8895), full-length IgG (antibody, V domains shown)
# VH: QMQLVQSGPEVKKPGTSVKVSCKASGFTFMSSAVQWVRQARGQRLEWIGWIVIGSGNTNYAQKFQERVTITRDMSTSTAYMELSSLRSEDTAVYYCAAPYCSSISCNDGFDIWGQGTMVTVSS
# VL: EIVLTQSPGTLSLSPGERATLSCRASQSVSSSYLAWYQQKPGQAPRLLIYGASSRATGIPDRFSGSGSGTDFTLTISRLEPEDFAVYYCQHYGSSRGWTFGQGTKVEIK
# notes: also called component of AZD7442 (Evusheld); copies: 2 + 2
# Biological target: T1, wild-type HexaPro (D614) SARS-CoV-2 spike trimer (SARS-CoV-2, wild type (D614), stabilised)
# T1 construct: also called wild-type trimer
# Assay: BLI; Octet Red384; […]; analyte ([…]; HBS-EP+ buffer; 1:1 binding model
# Details: one partner purified
binder,measurement,value
B1,Kd,491 pM
